The record followed here is patent US20180030149A1 (AVEO PHARMACEUTICALS, published 2018).

The target of assay [1] is T1, recombinant human ErbB3/Fc fusion protein (human, UniProt P21860 20-643).
T1 construct: Bought (R&D Systems, Cat. No. 348-RB); the NRG1-α1 assay names Cat. No. 4518-RB instead; also called rhErbB3-Fc; rhErbB3/Fc; not shown: Fc portion of the bought fusion protein
Put plainly: SPR Biacore T100, 25 C; antibody captured on anti-mouse IgG, rhErbB3-Fc injected. Here is the method: Rabbit anti-mouse IgGs (Biacore, Cat. No. BR-1008-38) were immobilized on carboxymethylated dextran CM4 sensor chips (Biacore, Cat. No. BR-1005-34) by amine coupling (BIAcore, Cat. No. BR-1000-50) using a standard coupling protocol according to vendor's instructions. The analyses were performed at 25° C., using PBS (Invitrogen, Cat. No. 14040-133) containing 0.05% surfactant P20 (Biacore, Cat. No. BR-1000-54) as running buffer.
The antibodies were captured in individual flow cells at a flow rate of 10 μl/minute. Injection time was varied for each antibody to yield an Rₘₐₓ between 30 and 60 RU. […] The dissociation phase was monitored for up to 3600 seconds. The surface was then regenerated with two 60-seconds injection of 10 mM Glycine-HCl, pH 1.7 (made from Glycine pH 1.5 (Biacore, Cat. No. BR-1003-54) and pH 2.0 (Biacore, Cat. No. BR-1003-55)) at a flow rate of […].
Kinetic parameters were determined using the kinetic function of the BIAevaluation software (Biacore) with double reference subtraction. Kinetic parameters for each antibody, kₐ (association rate constant), kd (dissociation rate constant) and KD (equilibrium dissociation constant) were determined.
Background: Surface plasmon resonance follows binding to a sensor surface in real time, without labels.

The target of assay [2] is T1, recombinant human ErbB3/Fc fusion …. The assay is described as follows: ECL (MSD) competition: rhErbB3/Fc coated on the plate, antibody dilutions, then NRG1-β1 at 0.25 µg/ml; bound NRG1-β1 detected. As to the method: (§1) MA2400 96-well standard binding plates (Meso Scale Discovery, Cat. No. L15XA-6) were coated with 50 μl of 0.5 μg/mL rhErbB3/Fc (R&D systems, Cat. No. 348-RB) in PBS (Invitrogen, Cat. No. 14040-133) for overnight at 4° C. with no agitation. The plates then were washed 3 times with PBS+0.1% Tween20 (Sigma P5927) and blocked with 200 μl of PBS containing 5% BSA (Sera Care Life Sciences, Cat. No. AP-4510-80) for 1.5 hour at room temperature. After washing the plates 3 times with PBS, 25 μl of the antibody dilutions were added to the plates for another hour at room temperature with agitation. […] The plates then were washed 3 times with PBS, and 150 μl of 1× read buffer (Meso Scale Discovery, Cat. No. R92TC-1) was added to each well before the plates were analyzed on a Sector® Imager 2400 (Meso Scale Discovery) instrument.

Assay [3] concerns the target T2, human ErbB3 (human, UniProt P21860 20-1342). Put plainly: cell-based or functional assay.
The target of assay [4] is T1, recombinant human ErbB3/Fc fusion …. The assay is described as follows: ECL competition; inhibition of NRG1-β1 binding to plate-coated rhErbB3/Fc. As to the method: as §1
Assay [5] concerns the target T2, human ErbB3. The assay is described as follows: cell-based or functional assay. This is another data set of the same source.

B1: 04D01 (antibody, mouse IgG1, kappa, V domains shown)
VH: QVQLQQPGAELVRPGTSVKLSCKASGYTFTSHWLHWVKQRPGQGLEWIGVLDPSDFYSNYNQNFKGKATLTVDTSSSTAYMQLSSLTSEDSAVYYCARGLLSGDYAMDYWGQGTSVTVSS
VL: DVLMTQIPLSLPVSLGDQASISCRSSQSIVHSNGNTYLEWYLQKPGQSPKSLIYKVSNRFSGVPDRFSGSGSGTDFTLKISRVEAEDLGVYYCFQGSYVPWTFGGGTKLEIKR
notes: Murine IgG1/kappa, purified from hybridoma; also called anti-hErbB3 monoclonal antibody 04D01
Broadly, the Kd is a measure of binding affinity in units of concentration. Usually koff stands for the rate constant with which the complex falls apart. For orientation: kon means the second-order rate constant of association. The IC50 is the concentration at which inhibition is half-maximal. With B1, in assay [1], the Kd was found to be 0.25 nM, the dissociation rate constant (koff) stood at 9.3e-05 s⁻¹ and the kon came to 380000 M⁻¹ s⁻¹. Further, the “IC50 (read off the curve)” value in assay [2] was around 0.1 nM. Further, the “IC50, NRG1-β1 dependent proliferation of MCF7 cells (MTT)” value with human ErbB3 [3] turned out to be 0.47 nM. Further, the IC50 in assay [4] amounted to 0.223 nM. Besides, in the assay with human ErbB3 [5], the “inhibition of NRG1-β1 induced phosphorylation of Akt in MCF7 and DU145 cells (ELISA)” value is at least 80%; the “inhibition of NRG1-β1 induced phosphorylation of ErbB3 in SKBR-3 cells (ELISA, 5 µg/ml antibody)” value was at least 50%.

B2: 24C05 (antibody, mouse IgG1, kappa)
heavy: EVQLVESGGGLVKPGGSLKLSCAASGFTFSDYAMSWVRQTPEKRLEWVATISDGGTYTYYPDNVKGRFTISRDNAKNNLYLQMSHLKSEDTAMYYCAREWGDYDGFDYWGQGTTLTVSSAKTTPPSVYPLAPGSAAQTNSMVTLGCLVKGYFPEPVTVTWNSGSLSSGVHTFPAVLQSDLYTLSSSVTVPSSTWPSQTVTCNVAHPASSTKVDKKIVPRDCGCKPCICTVPEVSSVFIFPPKPKDVLTITLTPKVTCVVVDISKDDPEVQFSWFVDDVEVHTAQTQPREEQFNSTFRSVSELPIMHQDWLNGKEFKCRVNSAAFPAPIEKTISKTKGRPKAPQVYTIPPPKEQMAKDKVSLTCMITDFFPEDITVEWQWNGQPAENYKNTQPIMDTDGSYFVYSKLNVQKSNWEAGNTFTCSVLHEGLHNHHTEKSLSHSPGK
light: DIQMTQSPSSLSASLGERVSLTCRASQEISGYLSWLQQKPDGTIKRLIYAASTLDSGVPKRFSGSRSGSDYSLTIGSLESEDLADYYCLQYDSYPYTFGGGTKLEIKRADAAPTVSIFPPSSEQLTSGGASVVCFLNNFYPRDINVKWKIDGSERQNGVLNSWTDQDSKDSTYSMSSTLTLTKDEYERHNSYTCEATHKTSTSPIVKSFNRNEC
notes: Murine IgG1/kappa, from hybridoma; also called murine 24C05; 24C05 IgG1
On to B2, for which, in assay [1], the Kd is 0.0065 nM, the off-rate constant (koff) amounted to 9.2e-06 s⁻¹ and the kon is 1.5e+06 M⁻¹ s⁻¹. In addition, the “IC50 (read off the curve)” value in assay [2] is around 0.3 nM. In addition, the “IC50, NRG1-β1 dependent proliferation of MCF7 cells (MTT)” value in the assay with human ErbB3 [3] was 0.39 nM. In assay [4], the IC50 was determined as 0.337 nM. In addition, in the assay with human ErbB3 [5], the “inhibition of NRG1-β1 induced phosphorylation of Akt in MCF7 and DU145 cells (ELISA)” value is at least 80%; the “inhibition of NRG1-β1 induced phosphorylation of ErbB3 in SKBR-3 cells (ELISA, 5 µg/ml antibody)” value was at least 50%.
